Results taken from PMC7196632, “NAD^+ biosynthesis in bacteria is controlled by global carbon/nitrogen levels via PII signaling” (The Journal of Biological Chemistry, 2020).

Tests used:
[1] = biological target: T1, GlnZ (with AbNadE2; 2-OG site on GlnZ) (Azospirillum brasilense, UniProt P70731); assay: loss of GlnZ relief of NAD+ inhibition of AbNadE2 (PPi release); type: biochemical
T1 construct: GlnZ homotrimer, non-uridylylated (native in activity assay; N-terminal His-tag kept in BLI), recombinant from E. coli; with Glutamine-dependent NAD(+) synthetase
T1 sequence (P70731 1-112, one chain of several): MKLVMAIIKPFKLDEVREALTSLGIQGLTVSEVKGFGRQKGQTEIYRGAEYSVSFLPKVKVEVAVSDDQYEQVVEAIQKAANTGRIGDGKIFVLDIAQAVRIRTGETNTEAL

[2] = biological target: T1, GlnZ (with AbNadE2; 2-OG site on GlnZ); assay: biolayer interferometry, inhibition of GlnZ-AbNadE2 association; type: binding
Procedure: biolayer interferometry, inhibition of GlnZ-AbNadE2 association on GlnZ (with AbNadE2; 2-OG site on GlnZ) | The binding curves and Ki were determined using the manufactureŕs software

[3] = biological target: T2, GlnZ-AbNadE2 complex (NAD+ site on AbNadE2) (Azospirillum baldaniorum, UniProt A0A9P1JPD2); assay: discontinuous assay of PPi release (EnzChek pyrophosphate kit); type: biochemical
T2 construct: gene nadE; with Nitrogen regulatory protein P-II 2
T2 sequence (P70731 1-112 partner, one chain of several): as the sequence (P70731 1-112, one chain of several) above

HsNadE2 (HsNadE2^Gln) = biological target: T3, HsNadE2 (HsNadE2^Gln) (Herbaspirillum seropedicae, UniProt D8IX05); assay: as above; type: biochemical; conditions: no PII (2 uM BSA); 100 nM enzyme, 4 mM ATP, 2 mM NaAD, 4 mM L-glutamine, 10 mM MgCl2, pH 8, 30 C
T3 construct: gene nadE; full-length, His-tag removed by thrombin, recombinant from E. coli; dimer
T3 sequence (D8IX05 1-565): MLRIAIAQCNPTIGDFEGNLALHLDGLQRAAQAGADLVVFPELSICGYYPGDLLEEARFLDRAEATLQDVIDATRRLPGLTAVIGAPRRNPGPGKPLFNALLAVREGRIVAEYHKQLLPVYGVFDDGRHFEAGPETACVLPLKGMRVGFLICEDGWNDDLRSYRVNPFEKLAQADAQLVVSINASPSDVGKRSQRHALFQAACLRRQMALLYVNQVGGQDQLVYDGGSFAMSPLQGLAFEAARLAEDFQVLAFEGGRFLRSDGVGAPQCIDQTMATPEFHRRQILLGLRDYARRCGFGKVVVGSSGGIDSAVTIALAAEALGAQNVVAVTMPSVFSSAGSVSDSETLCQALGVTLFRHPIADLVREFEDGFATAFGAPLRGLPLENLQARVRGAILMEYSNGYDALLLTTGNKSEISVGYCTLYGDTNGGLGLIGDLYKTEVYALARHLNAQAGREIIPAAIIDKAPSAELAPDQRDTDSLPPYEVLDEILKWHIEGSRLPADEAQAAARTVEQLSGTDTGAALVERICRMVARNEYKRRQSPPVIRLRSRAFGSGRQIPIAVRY

ScNadE2 (ScNadE^Gln) = biological target: T4, ScNadE2 (ScNadE^Gln) (Synechocystis sp. PCC 6803, UniProt P74292); assay: as above; type: biochemical; conditions: no PII (2 uM BSA); 100 nM enzyme, 4 mM ATP, 2 mM NaAD, 4 mM L-glutamine, 10 mM MgCl2, pH 8, 30 C
T4 construct: gene nadE; full-length, N-terminal His-tag removed with TEV protease, recombinant from E. coli (pTEV5-based pASnadESc); dimer
T4 sequence (P74292 1-558): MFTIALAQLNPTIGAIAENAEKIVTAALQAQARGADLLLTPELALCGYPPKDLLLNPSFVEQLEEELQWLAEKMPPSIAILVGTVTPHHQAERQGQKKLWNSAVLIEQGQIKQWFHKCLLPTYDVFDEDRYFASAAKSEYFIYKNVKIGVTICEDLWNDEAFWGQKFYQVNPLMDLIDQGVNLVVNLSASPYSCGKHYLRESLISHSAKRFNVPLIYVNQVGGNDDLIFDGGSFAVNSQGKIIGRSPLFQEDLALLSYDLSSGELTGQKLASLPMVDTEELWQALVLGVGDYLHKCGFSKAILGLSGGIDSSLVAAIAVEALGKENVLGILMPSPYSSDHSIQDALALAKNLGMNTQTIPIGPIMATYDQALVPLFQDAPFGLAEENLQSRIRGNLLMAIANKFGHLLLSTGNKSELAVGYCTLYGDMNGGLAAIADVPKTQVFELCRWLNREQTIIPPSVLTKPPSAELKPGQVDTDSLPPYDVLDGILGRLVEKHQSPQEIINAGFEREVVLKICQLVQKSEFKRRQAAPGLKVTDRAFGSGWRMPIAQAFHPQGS

AbNadE2 (AbNadE2^Gln) = biological target: T5, AbNadE2 (AbNadE2^Gln) (Azospirillum baldaniorum, UniProt A0A9P1JPD2); assay: as above; type: biochemical; conditions: read-out: IC50 (also called Ki)
T5 construct: gene nadE; full-length, untagged ('native AbNadE2'), recombinant from E. coli, purified as described previously; homodimer
T5 sequence (A0A9P1JPD2 1-554): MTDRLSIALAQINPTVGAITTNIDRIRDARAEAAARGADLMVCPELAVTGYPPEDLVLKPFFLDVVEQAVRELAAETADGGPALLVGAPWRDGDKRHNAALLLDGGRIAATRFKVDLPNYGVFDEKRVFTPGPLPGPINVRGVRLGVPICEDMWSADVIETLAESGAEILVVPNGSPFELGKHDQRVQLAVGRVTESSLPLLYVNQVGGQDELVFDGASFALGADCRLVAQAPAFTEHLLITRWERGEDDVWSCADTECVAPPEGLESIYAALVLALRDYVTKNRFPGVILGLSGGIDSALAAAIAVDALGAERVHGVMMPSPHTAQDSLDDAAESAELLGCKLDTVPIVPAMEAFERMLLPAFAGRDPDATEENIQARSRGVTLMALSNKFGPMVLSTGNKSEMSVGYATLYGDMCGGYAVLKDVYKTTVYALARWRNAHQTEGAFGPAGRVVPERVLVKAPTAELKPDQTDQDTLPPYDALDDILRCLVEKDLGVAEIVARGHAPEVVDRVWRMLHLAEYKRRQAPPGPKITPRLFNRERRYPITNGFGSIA

[4] = biological target: N-terminal His-tagged GlnZ protein of Azospirillum brasilense (Azospirillum brasilense) (UniProt P70731); assay: BLI; Octet K2; His-GlnZ immobilised on Ni-NTA sensor tip, AbNadE2 as analyte, with ADP (methods: 50 mM Tris-HCl pH 7, 50 mM KCl, 10 mM MgCl2, 2 mM ADP, 2.5 mM NAD+, 1 mg/ml BSA)
N-terminal His-tagged GlnZ protein of Azospirillum brasilense (Azospirillum brasilense), sequence (P70731 entry or part of it): as the sequence (P70731 1-112, one chain of several) above

[5] = biological target: N-terminal His-tagged GlnZ protein of Azospirillum brasilense (Azospirillum brasilense) (UniProt P70731); assay: BLI; Octet K2; His-GlnZ (2 ug/ml) immobilised on Ni-NTA sensor tip, AbNadE2 30-2000 nM (dimer) as analyte, with ATP (legend: 5 mM MgCl2, 1 mM ATP; methods: 50 mM Tris-HCl pH 7, 50 mM KCl, 10 mM MgCl2, 2 mM ATP, 2.5 mM NAD+, 1 mg/ml BSA)
[6] = biological target: Azospirillum brasilense type 2 glutamine-dependent NAD synthetase AbNadE2, native (untagged), purified (Azospirillum brasilense)
Azospirillum brasilense type 2 glutamine-dependent NAD synthetase AbNadE2, native (untagged), purified (Azospirillum brasilense), sequence (A0A0P0EJG6 entry or part of it): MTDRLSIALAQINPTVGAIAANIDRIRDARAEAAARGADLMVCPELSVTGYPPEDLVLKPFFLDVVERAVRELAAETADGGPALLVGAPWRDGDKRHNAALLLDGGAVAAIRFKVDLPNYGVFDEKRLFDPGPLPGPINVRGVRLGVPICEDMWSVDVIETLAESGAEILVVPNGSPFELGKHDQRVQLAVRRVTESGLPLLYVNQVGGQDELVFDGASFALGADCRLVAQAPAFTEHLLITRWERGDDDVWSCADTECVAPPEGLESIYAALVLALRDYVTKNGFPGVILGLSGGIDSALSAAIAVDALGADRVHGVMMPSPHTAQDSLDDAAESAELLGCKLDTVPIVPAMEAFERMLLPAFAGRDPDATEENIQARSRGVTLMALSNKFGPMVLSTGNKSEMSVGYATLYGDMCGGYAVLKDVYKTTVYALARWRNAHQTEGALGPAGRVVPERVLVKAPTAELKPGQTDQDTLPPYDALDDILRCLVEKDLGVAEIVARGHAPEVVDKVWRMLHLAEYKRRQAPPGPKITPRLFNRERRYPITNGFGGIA

[7] = substrate: Nc1ncnc2c1ncn2[C@@H]1O[C@H](COP(=O)(O)OP(=O)([O-])OC[C@H]2O[C@@H]([n+]3cccc(C(=O)O)c3)[C@H](O)[C@@H]2O)[C@@H](O)[C@H]1O; assay: NAD synthetase activity, Michaelis-Menten fit; type: biochemical, Azospirillum baldaniorum; conditions: without NAD+, pH 8, 30 C
purified protein = substrate: NC(=O)CC[C@H](N)C(=O)O; assay: purified protein; conditions: without NAD+, pH 8, 30 C

Molecule: O=C(O)CCC(=O)C(=O)O [2-oxoglutarate]
- IC50 [1]: 15.5 µM
- Ki [2]: 52.1 µM

Molecule: NC(=O)c1ccc[n+]([C@@H]2O[C@H](COP(=O)([O-])OP(=O)(O)OC[C@H]3O[C@@H](n4cnc5c(N)ncnc54)[C@H](O)[C@@H]3O)[C@@H](O)[C@H]2O)c1 [NAD^+]
- IC50 [3]: 2.5 mM
- relative activity vs NAD+ concentration (HsNadE2 (HsNadE2^Gln)): In both cases, NadE2^Gln was inhibited by NAD^+ in a dose-dependent manner
- relative activity vs NAD+ concentration (ScNadE2 (ScNadE^Gln)): In both cases, NadE2^Gln was inhibited by NAD^+ in a dose-dependent manner
- IC50 (AbNadE2 (AbNadE2^Gln)): 1 mM

Molecule: Azospirillum brasilense type 2 glutamine-dependent NAD synthetase AbNadE2, native (untagged), purified (enzyme)
- Kd [4]: 150 nM
- Kd [5]: 300 nM
- koff [5]: 0.0272 s⁻¹
- kon [5]: 90900 M⁻¹ s⁻¹

Molecule: N-terminal His-tagged GlnZ protein of Azospirillum brasilense (from UniProt P70731 1-112) (natural protein)
- activation of AbNadE2 NAD synthetase activity (PPi formation) at 2.5 mM NAD+, 100 nM AbNadE2, GlnZ 0.25-10 uM (trimer); Kact [6]: 640 nM

B1: AbNadE2 (AbNadE2^Gln) (Azospirillum baldaniorum) (protein)
chain: T5 sequence (A0A9P1JPD2 1-554)
notes: full-length, untagged ('native AbNadE2'), recombinant from E. coli, purified as described previously; homodimer
- Km [7]: 0.08 mM
- Km (purified protein): 0.72 mM
